# B1: bovine holo-transferrin: commercial iron-bound bovine holo-transferrin (Sigma) (protein, UniProt Q29443 20-704, looked up)
# Serotransferrin: DPERTVRWCTISTHEANKCASFRENVLRILESGPFVSCVKKTSHMDCIKAISNNEADAVTLDGGLVYEAGLKPNNLKPVVAEFHGTKDNPQTHYYAVAVVKKDTDFKLNELRGKKSCHTGLGRSAGWNIPMAKLYKELPDPQESIQRAAANFFSASCVPCADQSSFPKLCQLCAGKGTDKCACSNHEPYFGYSGAFKCLMEGAGDVAFVKHSTVFDNLPNPEDRKNYELLCGDNTRKSVDDYQECYLAMVPSHAVVARTVGGKEDVIWELLNHAQEHFGKDKPDNFQLFQSPHGKDLLFKDSADGFLKIPSKMDFELYLGYEYVTALQNLRESKPPDSSKDECMVKWCAIGHQERTKCDRWSGFSGGAIECETAENTEECIAKIMKGEADAMSLDGGYLYIAGKCGLVPVLAENYKTEGESCKNTPEKGYLAVAVVKTSDANINWNNLKDKKSCHTAVDRTAGWNIPMGLLYSKINNCKFDEFFSAGCAPGSPRNSSLCALCIGSEKGTGKECVPNSNERYYGYTGAFRCLVEKGDVAFVKDQTVIQNTDGNNNEAWAKNLKKENFEVLCKDGTRKPVTDAENCHLARGPNHAVVSRKDKATCVEKILNKQQDDFGKSVTDCTSNFCLFQSNSKDLLFRDDTKCLASIAKKTYDSYLGDDYVRAMTNLRQCSTSKLLEACTFHKP
# modifications: iron-bound
# B2: bovine apo-transferrin: iron-free bovine apo-transferrin (protein, UniProt Q29443 20-704, looked up)
# Serotransferrin: B1 Serotransferrin
# modifications: iron-free
# Test system: bax/bak-DKO MEFs
# Experiment: Death-inducing activity of transferrin and L-Gln under amino acid starvation
# Assay type: cell-based, mouse
# Details: with smFBS, 12 hrs
# Procedure: To induce cell death, 80%-confluent cells were washed with PBS twice, and then cultured in amino acid-free medium, with specific factors added as indicated in individual experiments. Cell death was analyzed by propidium iodide (PI) staining coupled with microscopy or flow cytometry. Alternatively, cell viability was determined using the CellTiter-Glo luminescent Cell Viability Assay (Promega). In assays using WT MEFs, viability was calculated by normalizing ATP levels to cells treated with amino acid-starvation in the presence of 10% (v/v) diFBS, while in assays using bax/bak-DKO MEFs, ATP levels were normalized to cells treated with amino acid and FBS double starvation.
row,Molecule,induction of cell death in the presence of smFBS
1,B1,induced robust cell death
2,B2,does not possess killing activity

# — patent publication US20180110770A1, “FERROPTOSIS AND GLUTAMINOLYSIS INHIBITORS AND METHODS OF TREATMENT” (MEMORIAL SLOAN-KETTERING CANCER CENTER, priority 2015, published 2018)
